The text below walks through data of article PMC6510601.

In the test the target is hepatitis B virus (HBV) truncated core protein Cp149 dimer (hepatitis B virus). The experiment in a line: resistive-pulse sensing.

In the case of “hepatitis B virus (HBV) truncated core protein Cp149 dimer (domain or fragment)”, the stoichiometry N – broadly, the number of molecules, sites or subunits per partner or assembly – was found to be 90 dimers.
